Reference: paper PMC3115558 (Biochemistry, 2011)
Ends that are not written are not given here.

Target: PP1α catalytic subunit (New England BioLabs) (UniProt P62139 1-330)
Assay: SPR

Chain of PP1α catalytic subunit (New England BioLabs) (P62139 whole entry): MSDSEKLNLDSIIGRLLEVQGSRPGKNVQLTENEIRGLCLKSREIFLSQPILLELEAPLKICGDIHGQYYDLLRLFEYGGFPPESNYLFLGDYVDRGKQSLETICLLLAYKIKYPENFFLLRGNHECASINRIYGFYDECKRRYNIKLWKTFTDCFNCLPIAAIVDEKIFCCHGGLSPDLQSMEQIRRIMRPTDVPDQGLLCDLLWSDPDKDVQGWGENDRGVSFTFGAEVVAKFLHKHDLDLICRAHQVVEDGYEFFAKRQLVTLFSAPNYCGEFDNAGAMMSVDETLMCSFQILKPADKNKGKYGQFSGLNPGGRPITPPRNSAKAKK

## AERQKEKASMLCAKRAKAAAKALKP (also: biotinylated, position not given here) [Biotinylated AKAP79 synthetic peptide, amino acids 25-49, mutant (AxxAxA)]
  Kd: 341 nM
